Data set [1] has as its target T1, Flag-RIG-I (Homo sapiens, UniProt O95786 O95786:1-925).
T1 sequence: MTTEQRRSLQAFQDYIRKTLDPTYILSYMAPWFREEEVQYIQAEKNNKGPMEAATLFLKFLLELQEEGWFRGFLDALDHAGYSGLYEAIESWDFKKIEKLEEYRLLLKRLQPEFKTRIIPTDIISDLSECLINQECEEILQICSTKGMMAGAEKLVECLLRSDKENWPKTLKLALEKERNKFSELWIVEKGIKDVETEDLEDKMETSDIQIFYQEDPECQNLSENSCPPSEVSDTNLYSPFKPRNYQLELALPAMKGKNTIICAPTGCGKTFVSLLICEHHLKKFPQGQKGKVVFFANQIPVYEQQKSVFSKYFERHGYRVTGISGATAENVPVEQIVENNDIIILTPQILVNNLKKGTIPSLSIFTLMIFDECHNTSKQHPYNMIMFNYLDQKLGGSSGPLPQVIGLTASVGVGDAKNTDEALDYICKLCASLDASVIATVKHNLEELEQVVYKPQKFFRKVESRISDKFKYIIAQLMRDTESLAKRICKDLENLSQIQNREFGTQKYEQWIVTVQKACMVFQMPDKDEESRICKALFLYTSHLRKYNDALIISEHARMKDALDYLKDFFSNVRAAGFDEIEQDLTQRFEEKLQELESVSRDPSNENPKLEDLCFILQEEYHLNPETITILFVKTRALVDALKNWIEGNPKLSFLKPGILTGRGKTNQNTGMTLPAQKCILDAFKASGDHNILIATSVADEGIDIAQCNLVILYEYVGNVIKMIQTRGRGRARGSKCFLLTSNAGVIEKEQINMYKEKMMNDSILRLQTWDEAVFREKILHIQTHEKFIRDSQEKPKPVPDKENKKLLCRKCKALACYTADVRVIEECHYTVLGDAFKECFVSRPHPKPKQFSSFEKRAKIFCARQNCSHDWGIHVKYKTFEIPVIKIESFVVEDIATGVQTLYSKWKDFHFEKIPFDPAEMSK
Put plainly: pulldown; one clone. Particulars: tags: FLAG, from 293T cells.

Data set [2] has as its target T1, Flag-RIG-I. The data set can be described thus: pulldown; three clones. The note with it: tags: FLAG, from 293T cells.
The target of data set [3] is T2, N-RIG (RIG-I N-terminal polypeptide) (UniProt O95786 O95786:1-228).
T2 sequence: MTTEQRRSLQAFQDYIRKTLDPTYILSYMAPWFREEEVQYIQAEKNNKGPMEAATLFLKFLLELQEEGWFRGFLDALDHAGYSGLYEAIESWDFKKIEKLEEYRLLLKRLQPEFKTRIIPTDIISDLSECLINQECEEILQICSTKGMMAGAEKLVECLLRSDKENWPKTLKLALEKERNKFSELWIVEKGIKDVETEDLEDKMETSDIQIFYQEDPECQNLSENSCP
Put plainly: EMSA; N-terminal polypeptide control. Particulars: broken stem-loop with 5' and 3' ss overhangs. (A gel shift assay detects complexes by their altered migration in electrophoresis.)

Data set [4] concerns the target T3, RIG-I full-length (Homo sapiens, UniProt O95786 O95786:1-925).
T3 sequence: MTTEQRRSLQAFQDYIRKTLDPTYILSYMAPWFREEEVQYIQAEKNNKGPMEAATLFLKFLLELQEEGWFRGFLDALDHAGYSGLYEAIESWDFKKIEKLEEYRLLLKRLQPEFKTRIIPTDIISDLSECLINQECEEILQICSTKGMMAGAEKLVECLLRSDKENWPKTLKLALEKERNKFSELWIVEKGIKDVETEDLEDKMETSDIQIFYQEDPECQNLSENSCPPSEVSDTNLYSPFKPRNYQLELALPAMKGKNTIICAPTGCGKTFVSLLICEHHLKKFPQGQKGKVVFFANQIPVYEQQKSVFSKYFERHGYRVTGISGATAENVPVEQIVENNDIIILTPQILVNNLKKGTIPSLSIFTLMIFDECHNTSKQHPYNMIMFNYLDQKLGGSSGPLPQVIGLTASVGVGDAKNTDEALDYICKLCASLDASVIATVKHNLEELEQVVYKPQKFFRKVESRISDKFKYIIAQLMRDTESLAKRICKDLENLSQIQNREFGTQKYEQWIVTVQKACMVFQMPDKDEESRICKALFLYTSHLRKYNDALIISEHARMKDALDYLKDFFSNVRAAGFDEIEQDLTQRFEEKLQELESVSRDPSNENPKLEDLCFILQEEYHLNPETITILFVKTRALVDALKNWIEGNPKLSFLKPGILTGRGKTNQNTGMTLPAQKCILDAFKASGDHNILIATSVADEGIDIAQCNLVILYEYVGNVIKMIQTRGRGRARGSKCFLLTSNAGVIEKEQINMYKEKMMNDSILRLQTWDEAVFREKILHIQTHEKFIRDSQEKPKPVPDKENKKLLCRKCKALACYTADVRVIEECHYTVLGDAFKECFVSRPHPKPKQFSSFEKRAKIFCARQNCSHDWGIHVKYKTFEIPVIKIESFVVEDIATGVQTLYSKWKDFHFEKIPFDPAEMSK
The data set can be described thus: EMSA; stable complex; 10 pmol protein, 6 pmol RNA, 20 mM Tris pH 8.0, 1.5 mM MgCl2, 37 C. Particulars: tags: recombinant full-length (Saito et al. 2007, 2008); broken stem-loop with 5' and 3' ss overhangs.

Data set [5] concerns the target T1, Flag-RIG-I. The data set can be described thus: pulldown; six clones isolated; partial clones of the full fragment. Particulars: tags: FLAG, from 293T cells.
In data set [6] the target is T1, Flag-RIG-I. Put plainly: pulldown; two clones. Particulars: tags: FLAG, from 293T cells.
Data set [7] has as its target T1, Flag-RIG-I. Put plainly: pulldown; eight clones. Particulars: tags: FLAG, from 293T cells; broken stem-loop with 5' and 3' ss overhangs.
Data set [8] has as its target T3, RIG-I full-length. The data set can be described thus: EMSA; stable complex; 1.5 mM MgCl2, 37 C. Particulars: tags: recombinant full-length (Saito et al. 2007, 2008); broken stem-loop with 5' and 3' ss overhangs.

B1: svRNA10 (ssRNA)
RNA: ACCUGGUCACGAGGCACGCCGAUGUCAUUCCCGUGCGCCGGCGAGGUGAUAGCAGGGGUAGCCUGCUUUCGCCCCGGCCCAUUUCCUACUUGAAAGGCUCCUCGGGGGGUCCGCUGUUGUGCCCCGCGGGACACGCCGUGGGCCUAUUCAGGGCCGCGGUGUGCACCCGUGGAGUGGCU
With B1, the binding result in the data set with Flag-RIG-I [1] is “binds”.

B2: svRNA11 (ssRNA)
RNA: ACAGACUGGGCGCUGUUCAGAAUGAAGUCACCCUGACGCACCCAAUCACCAAAUACAUCAUGACAUGCAUGUCGGCCGACCUGGAGAUCGUCACGAGCACCUGGGUGCUCGUUGGCGGCGUCCUGGCUGCUCUGGCCGCGUAUUGCCUGUCAACAGGCUGCGUGGUCAUAGUGGGCAGGAUU
B2: the binding result with Flag-RIG-I [1] was “binds”.

UGUUGCUGCAACGCUGGGCUUUGGUGCUU (ssRNA) [svRNA2]: the binding result in the data set with Flag-RIG-I [2] is listed as “binds”.

B3: svRNA3 (5'-p3/3'-OH) (ssRNA)
RNA: AAGAACAAAGCUCAAACUCACUCCAAUAGCGGCCGCUGGCCGGCUGGACUUGUCCGGUUGGUUCACGGCUGGCUACAGCGGGGGAGACAUUUA
modifications: 5'-triphosphate, 3'-OH
On to B3, for which the binding result is listed as “no binding” in data set [3] and “binds” in the data set with RIG-I full-length [4].

Turning to UGUCCACCGGCCUCAUCCACCUCCACCAGAACAUU (ssRNA) [svRNA1], the binding result with Flag-RIG-I [5] was “binds”.

B4: svRNA8 (ssRNA)
RNA: GCUUGGGCCAGCCGACGGAAUGGUCUCCAAGGGGUGGAGGUUGCUGGCGCCCAUCACGGCGUACGCCCAGCAGACGAGAGGCCUCCUAGGGUGUAUA
In the case of B4, in the data set with Flag-RIG-I [1], the binding result is listed as “binds”.

B5: svRNA9 (ssRNA)
RNA: GCUUGGGCCAGCCGACGGAAUGGUCUCCAAGGGGUGGAGGUUGCUGGCGCCCAUCACGGCGUACGCCCAGCAGACGAGAGGCCUCCUAGGGUGUAUA
For the molecule B5, in the data set with Flag-RIG-I [1], the binding result was “binds”.

B6: svRNA13 (ssRNA)
RNA: CCACCUCCACGGUCCCCUCCUGUGCCUCCGCCUCGGAAAAAGCGUACGGUGGUCCUCACCGAAUCAACCCUA
On to B6, for which the binding result in the data set with Flag-RIG-I [1] is “binds”.

B7: svRNA14 (ssRNA)
RNA: CCCGUGACCCUACAACCCCCCUCGCGAGAGCCGCGUGGGAGACAGCAAGACACACUCCAGUCAAUUCCUGGCUAGGCAACAU
In the case of B7, the binding result in the data set with Flag-RIG-I [1] is listed as “binds”.

B8: svRNA15 (ssRNA)
RNA: CCCGUGACCCUACAACCCCCCUCGCGAGAGCCGCGUGGGAGACAGCAAGACACACUCCAGUCAAUUCCUGGCUAGGCAACAU
On to B8, for which the binding result with Flag-RIG-I [6] was “binds”.

B9: svRNA6 (ssRNA)
RNA: ACGGGUCAUCGCAUGGCAUGGGAUAUGAUGAUGAACUGGUCCCCUACGGCAGCGUUGGUGGUAGCUCAGCUGCUCCGGAUCCCACAAGCCAUCAUGGACAUGAUCGCUGGUGCUCACUGGGGAGUCCUGGCGGGCAUAGCGU
Consider B9, for which, in the data set with Flag-RIG-I [6], the binding result is “binds”.

B10: svRNA12 (ssRNA)
RNA: UGCACCGCCAACCAUGACUCCCCUGACGCCGAGCUCAUAGAGGCUAACCUCCUGUGGAGGCAGGAGAUGGGCGGCAACAUCACCAGGGUUGAGUCAGAGAACAAAGUGGUGAUUCUGGACUCCUUCGAUCCGCUUGUGGCAGAGGAGGAUGAGCGGGAGGUCUCCGUACCUGCAGAAAUUCUGCGGAAGUCUCGGAGAUUCGCCCGGGCCCUGCCCGUCUGGGCGCGGCCGGACUACAACCCCCCGCUA
In the case of B10, the binding result in the data set with Flag-RIG-I [6] is reported as “binds”.

B11: svRNA7 (ssRNA)
RNA: GGUCUCCUUACACCAGGCGCCAAGCAGAACAUCCAACUGAUCAACACCAACGGCAGUUGGCACAUCAAUAGCACGGCCUUGAAUUGCAAUGAAAGCCUUAACACCGGCUGGUUAGCAGGGCUCUUCUAUCAACACAAAUUCAACUCUUCAGGCUGUCCUGAGAGGUUGGCCAGCUGCCGACGCCUUACCGAUUUUGCCCAGGGCUGGGGUCCUA
Regarding B11, in the data set with Flag-RIG-I [6], the binding result was “binds”.

On to ACCUUCUCUCCCAGGCGCCACUGGACGACGCAAGACUGCAAU (ssRNA) [svRNA5], for which the binding result with Flag-RIG-I [1] is listed as “binds”.

B12: svRNA3 (5'-OH/3'-p) (ssRNA)
RNA: AAGAACAAAGCUCAAACUCACUCCAAUAGCGGCCGCUGGCCGGCUGGACUUGUCCGGUUGGUUCACGGCUGGCUACAGCGGGGGAGACAU
modifications: 5'-OH, 3'-phosphate
Consider B12, for which the binding result is listed as “binds” in the data set with Flag-RIG-I [7], “no binding” in data set [3] and “binds” with RIG-I full-length [8].

(Values after patent US20120251571, “RNASE L-MEDIATED CLEAVAGE PRODUCTS AND USES […]” (The Cleveland Clinic Foundation, published 2012).)
